Reference: article PMC6994217 (Science Advances, 2020)
Square brackets hold non-standard residues; d marks the D form. pY = N[C@@H](Cc1ccc(OP(=O)(O)O)cc1)C(=O)O

B1: PD-1 ITIM phosphopeptide, Ac-FSVD(pY)GELDFQ-NH2 (peptide)
peptide: Ac-FSVD[pY]GELDFQ-NH2
SMILES: CC(=O)N[C@@H](Cc1ccccc1)C(=O)N[C@@H](CO)C(=O)N[C@H](C(=O)N[C@@H](CC(=O)O)C(=O)N[C@@H](Cc1ccc(OP(=O)(O)O)cc1)C(=O)NCC(=O)N[C@@H](CCC(=O)O)C(=O)N[C@@H](CC(C)C)C(=O)N[C@@H](CC(=O)O)C(=O)N[C@@H](Cc1ccccc1)C(=O)N[C@@H](CCC(N)=O)C(N)=O)C(C)C
B2: PD-1 ITSM phosphopeptide, Ac-EQTE(pY)ATIVFP-NH2 (peptide)
peptide: Ac-EQTE[pY]ATIVFP-NH2
SMILES: CC[C@H](C)[C@H](NC(=O)[C@@H](NC(=O)[C@H](C)NC(=O)[C@H](Cc1ccc(OP(=O)(O)O)cc1)NC(=O)[C@H](CCC(=O)O)NC(=O)[C@@H](NC(=O)[C@H](CCC(N)=O)NC(=O)[C@H](CCC(=O)O)NC(C)=O)[C@@H](C)O)[C@@H](C)O)C(=O)N[C@H](C(=O)N[C@@H](Cc1ccccc1)C(=O)N1CCC[C@H]1C(N)=O)C(C)C

Legend:
[1] = target: SHP2^1–220 (tandem SH2, both SH2 domains) (human) (UniProt Q06124); assay: NMR DOSY
[2] = target: SHP2^1–220 (tandem SH2, both SH2 domains) (human) (UniProt Q06124); assay: SEC-MALS
[3] = target: T1, N-terminal SH2 domain of SHP2 (SHP2^1–105) (human, UniProt Q06124-2 1-105); assay: ITC
T1 sequence: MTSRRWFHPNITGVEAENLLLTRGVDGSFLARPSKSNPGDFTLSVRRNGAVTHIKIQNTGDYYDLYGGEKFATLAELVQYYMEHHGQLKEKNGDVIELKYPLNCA

[4] = target: T2, C-terminal SH2 domain of SHP2 (SHP2^106–220) (human, UniProt Q06124-2 106-220); assay: ITC
T2 sequence: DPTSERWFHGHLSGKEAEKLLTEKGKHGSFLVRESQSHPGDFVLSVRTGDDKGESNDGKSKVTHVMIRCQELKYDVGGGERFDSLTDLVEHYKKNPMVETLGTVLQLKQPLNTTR

| Molecule | stoichiometry N (peptide per protein) [1] | stoichiometry N (peptide per protein) [2] | Kd [3] | Kd [4] |
| --- | --- | --- | --- | --- |
| diphosphorylated bidentate peptide ITIM-[dPEG4]2-ITSM, Ac-FSVD(pY)GELDFQ-(dPEG4)-(dPEG4)-EQTE(pY)ATIVFP-NH2 | 1 | – | – | – |
| diphosphorylated bidentate peptide ITSM-[dPEG4]2-ITSM, Ac-EQTE(pY)ATIVFP-(dPEG4)-(dPEG4)-EQTE(pY)ATIVFP-NH2 | – | 1 | – | – |
| B1 | – | – | 1900 nM | 26400 nM |
| B2 | – | – | 167 nM | 13 nM |
